Experimental data: publication PMC11643043

Biological target: soluble CD20^Avi
Test: SEC-MALS

stoichiometry N: 2
Substance: soluble CD20^Avi
